We go through three molecules from publication PMC2791223.

What all share (test): pull-down; partially purified recombinant proteins mixed and incubated overnight at 4°C, GSTrap columns, washed with 50 mM Tris pH 7.5, 150 mM NaCl, eluted with 10 mM reduced glutathione; Western blot with anti-His6 antibody, bands quantified with Image J, pulldown by GST-CD-Nef set to 100%
For orientation: Immunoblotting shows a protein as a band on a membrane.

For experiment [1], the target named is GST-MHC-I CD-Nef (human | HIV-1) (UniProt P03406).
Experiment [2] concerns the target GST-CD(Y320A)-NefLL/AA (human | HIV-1) (UniProt P03406).
In experiment [3] the target is GST-CD-Nef E62-65A,LL/AA (human | HIV-1) (UniProt P03406).
Experiment [4] has as its target GST-CD-Nef M20A,LL/AA (human | HIV-1) (UniProt P03406).
Experiment [5] addresses GST-CD-Nef P78A,LL/AA (human | HIV-1) (UniProt P03406).
The target in experiment [6] is GST-MHC-I CD-Nef LL/AA (human | HIV-1) (UniProt P03406).

As for “truncated μ1 mutant V392A/L395A (domain or fragment)”, in experiment [1], the pulldown efficiency (% of the pulldown of wild-type μ1 by GST-CD-Nef) came to 24%.
On to “truncated μ1 mutant F172A/D174S (domain or fragment)”, for which, in experiment [1], the pulldown efficiency (% of the pulldown of wild-type μ1 by GST-CD-Nef) stood at 57%.

B1: μ121 (AP-1 medium subunit μ1, residues 121–423) (domain or fragment)
chain: GYPQTTDSKILQEYITQEGHKLETGAPRPPATVTNAVSWRSEGIKYRKNEVFLDVIEAVNLLVSANGNVLRSEIVGSIKMRVFLSGMPELRLGLNDKVLFDNTGRGKSKSVELEDVKFHQCVRLSRFENDRTISFIPPDGEFELMSYRLNTHVKPLIWIESVIEKHSHSRIEYMVKAKSQFKRRSTANNVEIHIPVPNDADSPKFKTTVGSVKWVPENSEIVWSVKSFPGGKEYLMRAHFGLPSVEAEDKEGKPPISVKFEIPYFTTSGIQVRYLKIIEKSGYQALPWVRYITQNGDYQLRTQ
In the case of B1, the pulldown efficiency (% of the pulldown of μ1 by GST-CD-Nef) amounted to 16% in experiment [2]; 30% in experiment [3]; 53% in experiment [4]; 19% in experiment [5]; 77% in experiment [6].
